B1: GRB10-interacting GYF protein 2 (Homo sapiens), Q6Y7W6 (parent)
chain: MAAETQTLNFGPEWLRALSSGGSITSPPLSPALPKYKLADYRYGREEMLALFLKDNKIPSDLLDKEFLPILQEEPLPPLALVPFTEEEQRNFSMSVNSAAVLRLTGRGGGGTVVGAPRGRSSSRGRGRGRGECGFYQRSFDEVEGVFGRGGGREMHRSQSWEERGDRRFEKPGRKDVGRPNFEEGGPTSVGRKHEFIRSESENWRIFREEQNGEDEDGGWRLAGSRRDGERWRPHSPDGPRSAGWREHMERRRRFEFDFRDRDDERGYRRVRSGSGSIDDDRDSLPEWCLEDAEEEMGTFDSSGAFLSLKKVQKEPIPEEQEMDFRPVDEGEECSDSEGSHNEEAKEPDKTNKKEGEKTDRVGVEASEETPQTSSSSARPGTPSDHQSQEASQFERKDEPKTEQTEKAEEETRMENSLPAKVPSRGDEMVADVQQPLSQIPSDTASPLLILPPPVPNPSPTLRPVETPVVGAPGMGSVSTEPDDEEGLKHLEQQAEKMVAYLQDSALDDERLASKLQEHRAKGVSIPLMHEAMQKWYYKDPQGEIQGPFNNQEMAEWFQAGYFTMSLLVKRACDESFQPLGDIMKMWGRVPFSPGPAPPPHMGELDQERLTRQQELTALYQMQHLQYQQFLIQQQYAQVLAQQQKAALSSQQQQQLALLLQQFQTLKMRISDQNIIPSVTRSVSVPDTGSIWELQPTASQPTVWEGGSVWDLPLDTTTPGPALEQLQQLEKAKAAKLEQERREAEMRAKREEEERKRQEELRRQQEEILRRQQEEERKRREEEELARRKQEEALRRQREQEIALRRQREEEERQQQEEALRRLEERRREEEERRKQEELLRKQEEEAAKWAREEEEAQRRLEENRLRMEEEAARLRHEEEERKRKELEVQRQKELMRQRQQQQEALRRLQQQQQQQQLAQMKLPSSSTWGQQSNTTACQSQATLSLAEIQKLEEERERQLREEQRRQQRELMKALQQQQQQQQQKLSGWGNVSKPSGTTKSLLEIQQEEARQMQKQQQQQQQHQQPNRARNNTHSNLHTSIGNSVWGSINTGPPNQWASDLVSSIWSNADTKNSNMGFWDDAVKEVGPRNSTNKNKNNASLSKSVGVSNRQNKKVEEEEKLLKLFQGVNKAQDGFTQWCEQMLHALNTANNLDVPTFVSFLKEVESPYEVHDYIRAYLGDTSEAKEFAKQFLERRAKQKANQQRQQQQLPQQQQQQPPQQPPQQPQQQDSVWGMNHSTLHSVFQTNQSNNQQSNFEAVQSGKKKKKQKMVRADPSLLGFSVNASSERLNMGEIETLDDY
B2: Eukaryotic translation initiation factor 4E type 2 (Homo sapiens), O60573-1 (parent)
chain: MNNKFDALKDDDSGDHDQNEENSTQKDGEKEKTERDKNQSSSKRKAVVPGPAEHPLQYNYTFWYSRRTPGRPTSSQSYEQNIKQIGTFASVEQFWRFYSHMVRPGDLTGHSDFHLFKEGIKPMWEDDANKNGGKWIIRLRKGLASRCWENLILAMLGEQFMVGEEICGAVVSVRFQEDIISIWNKTASDQATTARIRDTLRRVLNLPPNTIMEYKTHTDSIKMPGRLGPQRLLFQNLWKPRLNVP
partner: B1 chain
B3: Eukaryotic translation initiation factor 4E type 2 (Homo sapiens), O60573-1 (parent)
chain: B2 chain
partner: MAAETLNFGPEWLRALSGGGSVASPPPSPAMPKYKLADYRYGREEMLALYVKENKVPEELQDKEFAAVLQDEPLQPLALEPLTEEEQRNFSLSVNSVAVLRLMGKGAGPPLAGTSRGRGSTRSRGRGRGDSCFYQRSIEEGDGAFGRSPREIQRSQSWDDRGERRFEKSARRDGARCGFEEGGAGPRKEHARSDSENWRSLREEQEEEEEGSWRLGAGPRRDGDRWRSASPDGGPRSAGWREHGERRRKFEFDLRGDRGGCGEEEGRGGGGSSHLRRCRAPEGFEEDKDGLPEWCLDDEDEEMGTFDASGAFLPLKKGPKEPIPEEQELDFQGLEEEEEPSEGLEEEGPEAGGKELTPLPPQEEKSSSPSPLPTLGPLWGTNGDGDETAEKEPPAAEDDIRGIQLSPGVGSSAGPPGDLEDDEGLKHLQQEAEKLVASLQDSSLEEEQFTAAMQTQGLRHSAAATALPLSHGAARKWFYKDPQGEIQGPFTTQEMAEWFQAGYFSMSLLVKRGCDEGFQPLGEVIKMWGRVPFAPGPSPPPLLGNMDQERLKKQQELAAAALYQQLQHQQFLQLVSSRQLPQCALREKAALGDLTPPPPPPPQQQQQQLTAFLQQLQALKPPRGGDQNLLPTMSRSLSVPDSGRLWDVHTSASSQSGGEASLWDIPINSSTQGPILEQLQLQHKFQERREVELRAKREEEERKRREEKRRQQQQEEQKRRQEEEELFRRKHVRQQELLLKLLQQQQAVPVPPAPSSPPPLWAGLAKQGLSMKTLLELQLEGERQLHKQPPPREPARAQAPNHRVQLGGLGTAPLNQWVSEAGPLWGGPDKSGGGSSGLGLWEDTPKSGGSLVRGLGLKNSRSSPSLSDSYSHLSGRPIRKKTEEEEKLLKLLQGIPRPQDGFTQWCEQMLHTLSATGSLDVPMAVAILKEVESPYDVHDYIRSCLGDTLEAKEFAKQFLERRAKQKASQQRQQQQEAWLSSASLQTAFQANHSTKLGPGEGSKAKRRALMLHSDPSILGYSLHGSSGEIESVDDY

Variants of: B1
Conditions: with EIF4E2, O60573-1

effect of a mutation on the interaction | Variant
disrupting interaction strength | Y41A;Y43A;M48A;L49A

Variants of: B1
Conditions: with EIF4E2, O60573-1
Remark: another data set of the same source

effect of a mutation on the interaction | Variant
with no effect | E46A;E47F;Q89A

Variants of: B1
Conditions: with EIF4E2, O60573-1
Remark: another data set of the same source

effect of a mutation on the interaction | Variant
with no effect | E46A;E47F;Q89A

Variants of: B2
Conditions: with GIGYF2, Q6Y7W6-1

effect of a mutation on the interaction | Variant
with no effect | MNNKFDALKDDDSGDHDQNEENSTQKDGEKEKTERDKNQSSSKRKAVVPGPAEHPLQYNYTFWYSRRTPGRPTSSQSYEQNIKQIGTFASVEQFARFYSHMVRPGDLTGHSDFHLFKEGIKPMWEDDANKNGGKWIIRLRKGLASRCWENLILAMLGEQFMVGEEICGAVVSVRFQEDIISIWNKTASDQATTARIRDTLRRVLNLPPNTIMEYKTHTDSIKMPGRLGPQRLLFQNLWKPRLNVP [W95A]
with no effect | MNNKFDALKDDDSGDHDQNEENSTQKDGEKEKTERDKNQSSSKRKAVVPGPAEHPLQYNYTFWYSRRTPGRPTSSQSYEQNIKQAGTFASVEQFWRFYSHAVRPGDLTGHSDFHLFKEGIKPMWEDDANKNGGKWIIRLRKGLASRCWENLILAMLGEQFMVGEEICGAVVSVRFQEDIISIWNKTASDQATTARIRDTLRRVLNLPPNTIMEYKTHTDSIKMPGRLGPQRLLFQNLWKPRLNVP [I85A;M101A]

Variants of: B2
Conditions: with GIGYF2, Q6Y7W6-1
Remark: another data set of the same source

effect of a mutation on the interaction | Variant
decreasing interaction strength | MNNKFDALKDDDSGDHDQNEENSTQKDGEKEKTERDKNQSSSKRKAVVPGPAEHPLQYNYTFWYSRRTPGRPTSSQSYEQNIKQIGTFASVEQFARFYSHMVRPGDLTGHSDFHLFKEGIKPMWEDDANKNGGKWIIRLRKGLASRCWENLILAMLGEQFMVGEEICGAVVSVRFQEDIISIWNKTASDQATTARIRDTLRRVLNLPPNTIMEYKTHTDSIKMPGRLGPQRLLFQNLWKPRLNVP [W95A]
decreasing interaction strength | MNNKFDALKDDDSGDHDQNEENSTQKDGEKEKTERDKNQSSSKRKAVVPGPAEHPLQYNYTFWYSRRTPGRPTSSQSYEQNIKQAGTFASVEQFWRFYSHAVRPGDLTGHSDFHLFKEGIKPMWEDDANKNGGKWIIRLRKGLASRCWENLILAMLGEQFMVGEEICGAVVSVRFQEDIISIWNKTASDQATTARIRDTLRRVLNLPPNTIMEYKTHTDSIKMPGRLGPQRLLFQNLWKPRLNVP [I85A;M101A]

Variants of: B2
Conditions: with ggyf2_human GIGYF2, Q6Y7W6

effect of a mutation on the interaction | Variant
disrupting interaction strength | MNNKFDALKDDDSGDHDQNEENSTQKDGEKEKTERDKNQSSSKRKAVVPGPAEHPLQYNYTFWYSRRTPGRPTSSQSYEQNIKQIGTFASVEQFARFYSHMVRPGDLTGHSDFHLFKEGIKPMWEDDANKNGGKWIIRLRKGLASRCWENLILAMLGEQFMVGEEICGAVVSVRFQEDIISIWNKTASDQATTARIRDTLRRVLNLPPNTIMEYKTHTDSIKMPGRLGPQRLLFQNLWKPRLNVP [W95A]
decreasing interaction strength | MNNKFDALKDDDSGDHDQNEENSTQKDGEKEKTERDKNQSSSKRKAVVPGPAEHPLQYNYTFWYSRRTPGRPTSSQSYEQNIKQAGTFASVEQFWRFYSHAVRPGDLTGHSDFHLFKEGIKPMWEDDANKNGGKWIIRLRKGLASRCWENLILAMLGEQFMVGEEICGAVVSVRFQEDIISIWNKTASDQATTARIRDTLRRVLNLPPNTIMEYKTHTDSIKMPGRLGPQRLLFQNLWKPRLNVP [I85A;M101A]
disrupting interaction strength | MNNKFDALKDDDSGDHDQNEENSTQKDGEKEKTERDKNQSSSKRKAVVPGPAEHPLQYNYTFWYSRRTPGRPTSSQSYEQNIKQIGTFASVEQFWRFYSHMVLPGDLTGHSDFHLFKEGIKPMWEDDANKNGGKWIIRLRKGLASRCWLNLILAMLGEQFMVGEEICGAVVSVRFQEDIISIWNKTASDQATTARIRDTLRRVLNLPPNTIMEYKTHTDSIKMPGRLGPQRLLFQNLWKPRLNVP [R103L;E149L]

Variants of: B2
Conditions: with GIGYF2, Q6Y7W6-1
Remark: another data set of the same source

effect of a mutation on the interaction | Variant
with no effect | MNNKFDALKDDDSGDHDQNEENSTQKDGEKEKTERDKNQSSSKRKAVVPGPAEHPLQYNYTFWYSRRTPGRPTSSQSYEQNIKQIGTFASVEQFWRFYSHMVRPGDLTGHSDFHLFKEGIKPMWEDDANKNGGKWIIRLRKGLASRCWENLILAMLGESFDVGEEICGAVVSVRFQEDIISIWNKTASDQATTARIRDTLREVLNLPPNTIMEYKTHTDSIKMPGRLGPQRLLFQNLWKPRLNVP [Q159S;M161D;R202E]

Variants of: B3
Conditions: with ggyf1_human GIGYF1, O75420

effect of a mutation on the interaction | Variant
disrupting interaction strength | MNNKFDALKDDDSGDHDQNEENSTQKDGEKEKTERDKNQSSSKRKAVVPGPAEHPLQYNYTFWYSRRTPGRPTSSQSYEQNIKQIGTFASVEQFARFYSHMVRPGDLTGHSDFHLFKEGIKPMWEDDANKNGGKWIIRLRKGLASRCWENLILAMLGEQFMVGEEICGAVVSVRFQEDIISIWNKTASDQATTARIRDTLRRVLNLPPNTIMEYKTHTDSIKMPGRLGPQRLLFQNLWKPRLNVP [W95A]

Variants of: B3
Conditions: with ggyf1_human GIGYF1, O75420
Remark: another data set of the same source

effect of a mutation on the interaction | Variant
with no effect | MNNKFDALKDDDSGDHDQNEENSTQKDGEKEKTERDKNQSSSKRKAVVPGPAEHPLQYNYTFWYSRRTPGRPTSSQSYEQNIKQIGTFASVEQFARFYSHMVRPGDLTGHSDFHLFKEGIKPMWEDDANKNGGKWIIRLRKGLASRCWENLILAMLGEQFMVGEEICGAVVSVRFQEDIISIWNKTASDQATTARIRDTLRRVLNLPPNTIMEYKTHTDSIKMPGRLGPQRLLFQNLWKPRLNVP [W95A]

— IntAct's records for PubMed 28698298
